The source of these data is the supplement of paper PMC10567573.

Sequences and labels used below:
B1: WEE1 (parent)
chain: FISRTSIPNAASEEGDEDDWASNK
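Further: lentivirally expressed fusions sorted by FACS into six bins by GFP to DsRed ratio, PSI derived from sequencing read proportions per bin multiplied by bin number.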

In the data set the parent is B1. Nature of the data set: protein stability index of a GFP-peptide fusion (GPS, HEK-293T) (PSI 1-6); higher = more stable. The note with it: c terminus: a fixed tail appended.
With FISRGSIPNAASEEGDEDDWASNK [T5G], the protein stability index amounted to 3.53. To FISRCSIPNAASEEGDEDDWASNK [T5C] belongs 3.58; to FISRPSIPNAASEEGDEDDWASNK [T5P], 4. To FISRHSIPNAASEEGDEDDWASNK [T5H] belongs 3.21. With FISRTSIPNAVSEEGDEDDWASNK [A11V], the protein stability index was found to be 3.92.

Take FISRTSIPNAKSEEGDEDDWASNK [A11K]: the protein stability index came to 3.69. Consider FISRTSIPNAPSEEGDEDDWASNK [A11P], for which the protein stability index was 3.95.

For FISRTSIPNATSEEGDEDDWASNK [A11T], the protein stability index was 4.19. To FISRTSIPNAWSEEGDEDDWASNK [A11W] belongs 2.45; to FISRTSIPNAASEVGDEDDWASNK [E14V], 3.35; to FISRTSIPNAASEIGDEDDWASNK [E14I], 3.64.

FISRTSIPNAASEMGDEDDWASNK [E14M]: the protein stability index is 3.79. As to FISRTSIPNAASEGGDEDDWASNK [E14G], the protein stability index is 3.33.

FISRTSIPNAASEFGDEDDWASNK [E14F]: the protein stability index is 3.53. Under FISRTSIPNAASEQGDEDDWASNK [E14Q] stands 3.91; under FISRTSIPNAASEWGDEDDWASNK [E14W], 3.02. For the variant FISRTSIPNAASECGDEDDWASNK [E14C], the protein stability index was 4.11. Consider FISRTSIPNAASESGDEDDWASNK [E14S], for which the protein stability index was determined as 3.66. As for FISRTSIPNAASEPGDEDDWASNK [E14P], the protein stability index was determined as 3.98. To FISRTSIPNAASEEGEEDDWASNK [D16E] belongs 3.94; to FISRTSIPNAASEEGHEDDWASNK [D16H], 3.23. Regarding FISRTSIPNAASEEGIEDDWASNK [D16I], the protein stability index came to 4.

For the variant FISRTSIPNAASEEGYEDDWASNK [D16Y], the protein stability index was 3.46. Under FISRTSIPNAASEEGNEDDWASNK [D16N] stands 3.8; under FISRTSIPNAASEEGMEDDWASNK [D16M], 3.61. Regarding FISRTSIPNAASEEGDEDDRASNK [W20R], the protein stability index is 4.46.

With FISRTSIPNAASEEGDEDDTASNK [W20T], the protein stability index stood at 4.46. Take FISRTSIPNAASEEGDEDDQASNK [W20Q]: the protein stability index was found to be 4.7. Under FISRTSIPNAASEEGDEDDYASNK [W20Y] stands 4.23; under FISRTSIPNAASHEGDEDDWASNK [E13H], 3.67; under FISRTSIPNAASLEGDEDDWASNK [E13L], 3.5.

Turning to FISRTSIPNAASREGDEDDWASNK [E13R], the protein stability index stood at 4.15.

Take FISRTSIPNAASEEGDEDDWRSNK [A21R]: the protein stability index stood at 4.39. Under FISRTSIPNAASEEGDEDDWDSNK [A21D] stands 4.77; under FISRTSIPNAASEEGDEDDWISNK [A21I], 3.83.

FISRTSIPNAASEEGDEDDWPSNK [A21P]: the protein stability index was 3.7. On to FISRTSIPNAASEEGDEDDWESNK [A21E], for which the protein stability index is 4.5. For FISRTSIPNAASEEGDNDDWASNK [E17N], the protein stability index turned out to be 2.13. For the variant FISRTSIPNAASEEGDSDDWASNK [E17S], the protein stability index was determined as 3.72. Under FISRTSIPNAASEEGDTDDWASNK [E17T] stands 3.64; under FISRTSIPNAASEEGDMDDWASNK [E17M], 3.67. Turning to FISRTSIPNAASEEGDGDDWASNK [E17G], the protein stability index worked out at 3.75. Regarding FISRTSIPNAAMEEGDEDDWASNK [S12M], the protein stability index is 3.68.

As to FISRTSIPNAAAEEGDEDDWASNK [S12A], the protein stability index was determined as 3.64.

Take FISRTSIPNAAWEEGDEDDWASNK [S12W]: the protein stability index is 3.47. Under FISRTSIPNAAPEEGDEDDWASNK [S12P] stands 4.18; under FISRTSIPNAAKEEGDEDDWASNK [S12K], 3.75; under FISRTSIPNAAYEEGDEDDWASNK [S12Y], 3.76. To FISRTSIPNAAQEEGDEDDWASNK [S12Q] belongs 4.3; to FISRTSIPNAAGEEGDEDDWASNK [S12G], 4.13; to FISRTSIPNAAEEEGDEDDWASNK [S12E], 4.34.

Regarding FISRTSIPNVASEEGDEDDWASNK [A10V], the protein stability index turned out to be 3.57. To FISRTSIPNWASEEGDEDDWASNK [A10W] belongs 2.15; to FISRTSIPNMASEEGDEDDWASNK [A10M], 3.54; to FISRTSIPNHASEEGDEDDWASNK [A10H], 4.06. Under FISRTSIPNAASEEGDEDVWASNK [D19V] stands 3.02; under FISRTSIPNAASEEGDEDYWASNK [D19Y], 3.27.

For the variant FISRTSIPNAASEEGDEDHWASNK [D19H], the protein stability index was 3.61. Under FISRTSIPNAASEEGDEDIWASNK [D19I] stands 2.67; under FISRTSIPNAASEEGDEDGWASNK [D19G], 3.82; under FSSRTSIPNAASEEGDEDDWASNK [I2S], 5.02. Under FPSRTSIPNAASEEGDEDDWASNK [I2P] stands 5.21; under FLSRTSIPNAASEEGDEDDWASNK [I2L], 5.06. For FHSRTSIPNAASEEGDEDDWASNK [I2H], the protein stability index was 3.36. Under FGSRTSIPNAASEEGDEDDWASNK [I2G] stands 5.75; under FVSRTSIPNAASEEGDEDDWASNK [I2V], 2.78.

As for FFSRTSIPNAASEEGDEDDWASNK [I2F], the protein stability index turned out to be 5.38. For FKSRTSIPNAASEEGDEDDWASNK [I2K], the protein stability index came out at 5.46. To FISRTSIPNAASEEGDEDDWASDK [N23D] belongs 3.92. With FISRTSIPNAASEEGDEDDWASSK [N23S], the protein stability index was found to be 4.16. Under FISRTSIPNAASEEGDEDDWASCK [N23C] stands 3.73; under FISRTSIPNAASEEGDEDDWASLK [N23L], 3.45. For the variant FISRTSYPNAASEEGDEDDWASNK [I7Y], the protein stability index stood at 2.72. To FISRTSHPNAASEEGDEDDWASNK [I7H] belongs 3.79. As to FISRTSWPNAASEEGDEDDWASNK [I7W], the protein stability index was 2.82. Under FISRTSLPNAASEEGDEDDWASNK [I7L] stands 4.11. For FISRTSGPNAASEEGDEDDWASNK [I7G], the protein stability index was determined as 4.84. Under FIARTSIPNAASEEGDEDDWASNK [S3A] stands 4.44. Under FIWRTSIPNAASEEGDEDDWASNK [S3W] stands 2.85; under FILRTSIPNAASEEGDEDDWASNK [S3L], 3.95; under FIPRTSIPNAASEEGDEDDWASNK [S3P], 3.67.

As to FIKRTSIPNAASEEGDEDDWASNK [S3K], the protein stability index was 4.56. Under FICRTSIPNAASEEGDEDDWASNK [S3C] stands 4.11; under FIHRTSIPNAASEEGDEDDWASNK [S3H], 3.59.

TISRTSIPNAASEEGDEDDWASNK [F1T]: the protein stability index stood at 5.32. Turning to RISRTSIPNAASEEGDEDDWASNK [F1R], the protein stability index was 4.92. To HISRTSIPNAASEEGDEDDWASNK [F1H] belongs 5.37; to IISRTSIPNAASEEGDEDDWASNK [F1I], 5.73. To GISRTSIPNAASEEGDEDDWASNK [F1G] belongs 5.71.

Consider KISRTSIPNAASEEGDEDDWASNK [F1K], for which the protein stability index was 5.42. CISRTSIPNAASEEGDEDDWASNK [F1C]: the protein stability index is 5.29.

As to YISRTSIPNAASEEGDEDDWASNK [F1Y], the protein stability index was determined as 4.39. As for FISRTFIPNAASEEGDEDDWASNK [S6F], the protein stability index turned out to be 1.83. Turning to FISRTAIPNAASEEGDEDDWASNK [S6A], the protein stability index amounted to 3.98. Consider FISRTLIPNAASEEGDEDDWASNK [S6L], for which the protein stability index was 2.66. To FISRTHIPNAASEEGDEDDWASNK [S6H] belongs 3.48; to FISRTSIPNAASEEGDEDDWAENK [S22E], 4.18. For FISRTSIPNAASEEGDEDDWAHNK [S22H], the protein stability index came to 3.92.

In the case of FISRTSIPNAASEEGDEDDWAVNK [S22V], the protein stability index was 3.96. As to FISRTSIPNAASEEGDEDDWAFNK [S22F], the protein stability index turned out to be 3.96. Turning to FISRTSIPNAASEEGDEDDWACNK [S22C], the protein stability index was determined as 3.87. For FISRTSIPNAASEEGDEDDWAQNK [S22Q], the protein stability index was found to be 3.9. Under FISRTSIPNAASEEGDEDDWANNK [S22N] stands 4.11; under FISRTSIPNAASEEGDEPDWASNK [D18P], 3.6; under FISRTSIPNAASEEGDEKDWASNK [D18K], 3.76. Consider FISRTSIPNAASEEGDEEDWASNK [D18E], for which the protein stability index is 4.22. In the case of FISRTSIPNAASEEGDEMDWASNK [D18M], the protein stability index was 3.03. Turning to FISRTSIPNAASEEGDEGDWASNK [D18G], the protein stability index was 3.55. For FISRTSIPNAASEEGDECDWASNK [D18C], the protein stability index is 3.28.

Take FISRTSIRNAASEEGDEDDWASNK [P8R]: the protein stability index was 3.69. Consider FISRTSIENAASEEGDEDDWASNK [P8E], for which the protein stability index is 3.82. To FISRTSISNAASEEGDEDDWASNK [P8S] belongs 4.05; to FISRTSITNAASEEGDEDDWASNK [P8T], 4.1; to FISRTSIANAASEEGDEDDWASNK [P8A], 3.93. Regarding FISRTSIKNAASEEGDEDDWASNK [P8K], the protein stability index was determined as 4.12. Under FISRTSIPNAASEEGDEDDWASNG [K24G] stands 4.01.

As for FISRTSIPNAASEEGDEDDWASNH [K24H], the protein stability index came to 3.91. To FISRTSIPNAASEEGDEDDWASND [K24D] belongs 4.73; to FISRTSIPNAASEEGDEDDWASNC [K24C], 4.15. Under FISRTSIPNAASEEGDEDDWASNS [K24S] stands 4.53. On to FISRTSIPYAASEEGDEDDWASNK [N9Y], for which the protein stability index was found to be 2.35. To FISRTSIPQAASEEGDEDDWASNK [N9Q] belongs 4.28; to FISRTSIPAAASEEGDEDDWASNK [N9A], 3.66. Under FISRTSIPSAASEEGDEDDWASNK [N9S] stands 3.84; under FISKTSIPNAASEEGDEDDWASNK [R4K], 3.86; under FISQTSIPNAASEEGDEDDWASNK [R4Q], 4.6. To FISLTSIPNAASEEGDEDDWASNK [R4L] belongs 4.05; to FISSTSIPNAASEEGDEDDWASNK [R4S], 4.2. On to FISITSIPNAASEEGDEDDWASNK [R4I], for which the protein stability index came out at 3.85. Consider FISYTSIPNAASEEGDEDDWASNK [R4Y], for which the protein stability index turned out to be 4.1. To FISGTSIPNAASEEGDEDDWASNK [R4G] belongs 4.62. To FISRTSIPNAASEEPDEDDWASNK [G15P] belongs 3.79; to FISRTSIPNAASEEDDEDDWASNK [G15D], 4.12; to FISRTSIPNAASEENDEDDWASNK [G15N], 3.78. Under FISRTSIPNAASEEFDEDDWASNK [G15F] stands 3.83; under FISRTSIPNAASEEQDEDDWASNK [G15Q], 3.78; under FISRTSIPNAASEEMDEDDWASNK [G15M], 3.72.

As to FISRTSIPNAASEEKDEDDWASNK [G15K], the protein stability index was 4.18. Under FISRTSIPNAASEEVDEDDWASNK [G15V] stands 4.46; under FISRTSIPNAASEELDEDDWASNK [G15L], 3.74.
